Reference: patent US12037395 (IMMVIRA, dated 2024)
Positions count from the first letter of the chain named. Blank lines part the entries; values can stand above or below the binder they belong to.

Tests used:
[1] = target: T1, recombinant human PD-1-his (Sino biological, #10377-H08H) (human, UniProt Q15116 25-167); assay: SPR (Biacore) as in Example 2
T1 construct: Bought protein; also called Human PD-1-his protein; not shown: his tag

[2] = target: T2, biotin-labeled human PD-1 Fc protein (human, biotin-labeled (sites not given)); assay: PD1/PDL1 ligand blocking ELISA (coated PD-L1-Fc)
T2 construct: also called PD-1-Fc-biotin

[3] = target: T3, human PD-1 on PD-1 Effector Cell Line (Genscript, GS-J2/PD-1) (human, UniProt Q15116 25-288); assay: cell-based or functional assay
[4] = target: T2, biotin-labeled human PD-1 Fc protein; assay: binding capture ELISA (goat anti-human IgG Fab capture), biotin PD-1-Fc
[5] = target: T2, biotin-labeled human PD-1 Fc protein; assay: binding capture ELISA, biotin PD-1-Fc
[6] = target: T2, biotin-labeled human PD-1 Fc protein; assay: benchmark blocking ELISA (coated Nivolumab as competitor)
Description: (§1) The next day, plates were washed with wash buffer, and blocked with 5% non-fatty milk in PBST for 2 hours at 37° C. […] Plates were finally washed using wash buffer. TMB was added and the reaction was stopped using 1M H_2SO_4, and the absorbance was read at 450 nm. Data were analyzed using Graphpad Prism software and $IC50$ values were reported.

[7] = target: T4, cynomolgus monkey PD-1-his protein (Acro biosystems, #PD-1-C5223) (cynomolgus monkey, UniProt B0LAJ3 25-170); assay: SPR (Biacore)
T4 construct: Bought protein; also called Cynomolgus PD-1; Cynomolgus PD1

[8] = target: T1, recombinant human PD-1-his (Sino …); assay: SPR (Biacore)
[9] = target: T2, biotin-labeled human PD-1 Fc protein; assay: benchmark blocking ELISA (coated Nivolumab, self-competition)
[10] = target: T2, biotin-labeled human PD-1 Fc protein; assay: competition ELISA: blocks biotin PD-1-Fc binding to coated Nivolumab (self-competition)
[11] = target: T2, biotin-labeled human PD-1 Fc protein; assay: capture binding ELISA, biotin PD-1-Fc
[12] = target: T2, biotin-labeled human PD-1 Fc protein; assay: benchmark blocking ELISA (coated Nivolumab, self-competition); remark: listed apart in the source
[13] = target: T2, biotin-labeled human PD-1 Fc protein; assay: PD1/PDL1 ligand blocking ELISA (coated PD-L1-Fc); remark: listed apart in the source
Description: (§2) The next day, plates were washed with wash buffer (PBS+0.05% Tween-20, PBST), and blocked with 5% non-fatty milk in PBST for 2 hours at 37° C. Plates were then washed again using wash buffer.
(§3) After incubation at 37° C. for 40 minutes, plates were washed for 4 times using wash buffer. […] Plates were washed again using wash buffer. Finally, TMB was added and the reaction was stopped using 1M H_2SO_4, and the absorbance was read at 450 nm. Data were analyzed using Graphpad Prism software and $IC50$ values were reported.

[14] = target: T2, biotin-labeled human PD-1 Fc protein; assay: capture ELISA: antibody captured by anti-IgG Fc, biotin PD-1-Fc 60 nM
[15] = target: T2, biotin-labeled human PD-1 Fc protein; assay: competition ELISA: blocks biotin PD-1-Fc binding to coated Nivolumab (competitor); partial blocking
Description: as §1

[16] = target: T4, cynomolgus monkey PD-1-his protein …; assay: SPR (Biacore T200), antibody captured, antigen flowed
Text: (§4) Briefly, goat […] (GE healthcare, Cat #BR100839, Human Antibody Capture Kit) was covalently linked to a CM5 chip (carboxy methyl dextran coated chip) via primary amines, using a standard amine coupling kit (GE healthcare, Pittsburgh, PA, USA) provided by Biacore. Unreacted moieties on the biosensor surface were blocked with ethanolamine. […] Then, recombinant human PD-1-his (Sino biological, #10377-H08H) or cynomolgus monkey PD-1-his protein (Acro biosystems, #PD-1-C5223) in HBS EP buffer (provided by Biacore) was flowed onto the chip at a flow rate of 30 μL/min. The antigen-antibody association kinetics was followed for 2 minutes and the dissociation kinetics was followed for 10 minutes. The association and dissociation curves were fit to a 1:1 *Langmuir* binding model using BIA evaluation software.

[17] = target: T1, recombinant human PD-1-his (Sino …); assay: as above
Text: as §4

[18] = target: T3, human PD-1 on PD-1 Effector Cell Line …; assay: cell-based or functional assay; remark: listed apart in the source
[19] = target: T2, biotin-labeled human PD-1 Fc protein; assay: competition ELISA: blocks biotin PD-1-Fc binding to coated PD-L1-Fc
Description: as §2, §3

- Kd [1]: 4.52 nM
B1: humanized anti-PD-1 antibody huC1E1-V3 (antibody, human IgG1, kappa, V domains shown)
VH: EVQLVESGGGVVQPGRSLRLSCAASGFTFSSYLMSWVRQAPGKGLEWVATISGGGGDTYFPDSVKGRFTISRDNSKNTLYLQMNSLRAEDTAVYYCVRFGGAGYYWYFDVWGAGTLVTVSS
VL: EIVLTQSPATLSLSPGERATLSCRASKSVDDSGISFMHWYQQKPGQPPRLLIYAASNQGSGVPARFSGSGSGTDFTLTISSLEPEDFAVYFCHQTKEVPWTFGQGTKVEIKR
notes: Human IgG1/kappa, expressed in 293F cells

- IC50 [2]: 0.88 nM
- Cell-based reporter assay (EC50, nM) [3]: 11.3 nM
- EC50 [4]: 0.44 nM
- EC50 [5]: 0.34 nM
- Kd [1]: 0.968 nM
- IC50 [6]: 0.35 nM
- Kd [7]: 0.892 nM
- Kd [8]: 0.968 nM
B2: humanized anti-PD-1 antibody huC1E1-V10 (antibody, human IgG1, kappa)
heavy: not shown
light: EIVLTQSPATLSLSPGERATLSCRASKSVDDSGISFMHWYQQKPGQAPRLLIYAASNQGSGIPARFSGSGSGTDFTLTISSLEPEDFAVYYCHQTKEVPWTFGQGTKVEIKRTVAAPSVFIFPPSDEQLKSGTASVVCLLNNFYPREAKVQWKVDNALQSGNSQESVTEQDSKDSTYSLSSTLTLSKADYEKHKVYACEVTHQGLSSPVTKSFNRGEC
notes: as for B1

- Kd [1]: 2.95 nM
B3: humanized anti-PD-1 antibody huC1E1-V4 (antibody, human IgG1, kappa, V domains shown)
VH: B1 VH
VL: B1 VL with Y40F, P47A
notes: as for B1

- Kd [1]: 6.36 nM
B4: humanized anti-PD-1 antibody huC1E1-V7 (antibody, human IgG1, kappa)
heavy: not shown
light: B2 light
notes: as for B1

- Kd [1]: 3.37 nM
B5: humanized anti-PD-1 antibody huC1E1-V5 (antibody, human IgG1, kappa, V domains shown)
VH: B1 VH
VL: B1 VL with Y40F, V62I
notes: as for B1

- Kd [1]: 3.05 nM
B6: humanized anti-PD-1 antibody huC1E1-V6 (antibody, human IgG1, kappa, V domains shown)
VH: B1 VH
VL: B1 VL with Y40F, F91Y
notes: as for B1

- IC50 [9]: 0.38 nM
- IC50 [10]: 3.79 nM
- IC50 [2]: 0.41 nM
- EC50 [5]: 0.37 nM
- EC50 [11]: 0.37 nM
- IC50 [12]: 0.38 nM
- IC50 [13]: 0.41 nM
- EC50 [14]: 0.21 nM
B7: Nivolumab (OPDIVO®) (antibody, V domains shown)
VH: QVQLVESGGGVVQPGRSLRLDCKASGITFSNSGMHWVRQAPGKGLEWVAVIWYDGSKRYYADSVKGRFTISRDNSKNTLFLQMNSLRAEDTAVYYCATNDDYWGQGTLVTVSS
VL: EIVLTQSPATLSLSPGERATLSCRASQSVSSYLAWYQQKPGQAPRLLIYDASNRATGIPARFSGSGSGTDFTLTISSLEPEDFAVYYCQQSSNWPRTFGQGTKVEIK

- IC50 [15]: 14.4 nM
- Kd [16]: 13 nM
- koff [16]: 0.00183 s⁻¹
- kon [16]: 140000 M⁻¹ s⁻¹
- Kd [17]: 2.68 nM
- koff [17]: 0.000436 s⁻¹
- kon [17]: 163000 M⁻¹ s⁻¹
- Reporter Activation (EC50, nM) human PD-1 cell (NFAT-luc)/human PD-L1 cell [18]: 17.9 nM
- IC50 [19]: 0.32 nM
- EC50 [14]: 0.18 nM
B8: mouse anti-PD-1 monoclonal antibody 2G2 (antibody, mouse IgG1, kappa, V domains shown)
VH: EVQLVESGGDLVKPGGSLKLSCTASGFTFSYYGMSWVRQTPDKRLEWVATISSGSSFTYSPDSVKGRFTISRDNAKNTLYLQMNSLKSEDTAIYYCTRREGIYDASWDYSMDYWGQGTSVTVSS
VL: DVLMTQTPLSLPVSLGDQASISCRSSQSIIRSNGNTYLEWYLQKPGQSPKLLIYKVSNRFSGVPDRFSGSGSGTDFTLKISRVEADDLGLYYCFQGSHVPWTFGGGTKLEIKR
notes: Purified from hybridoma; Constant regions tied only generically to 'mouse antibodies'; also called Clone 2G2
